Data from the DeepSol protein solubility set.

Assay: soluble on expression in E. coli; label from the status in PepcDB or PDB records
With “MKENFQIHIWLGLLLCLLGMSCSDDTPAKGDDPGNGNTELEVNEWIESVMRSDYLWNNDIPAQNKLDFSADPQTFFRSMLSLKDGKTRNGKHLYYYSYMEKNKDYKARTSIDADDTYGMEFTLFNVVNDSNQPLGYYYARILYVLPNSPASSAGLERGDWIVGVKGRNNINSDNYGILLNGDRTQWLVKRGDTEVRTIDIEASRAVEDNPLFYHNVYTRGDKKIGYLVYNHFTSGPNGYSDRTYDEEMKKIFAGFQAQGVNEFVLDLRYNGGGYENSANMLAGLLIPEASRKKVFAVFSDNKGQSYSNDFCVETKGTAGYLKLNSNRIYILTSQSTASSSEVVINSLNPFMDVILIGELTEGKNVGMEMQKNDKYEWIYWPITLRVTNAVNDDYSAGFKPDIEWNEYDLTQNPTDALLPLGDPDEFMLGKAISLITGINRSARSMNTLGIFSKCL” the “soluble on expression in E. coli” value was “not soluble”.
For “MKFCKKCVMPDTKPDLHFDEEGVCDACRSQEAKNQNINWQEREKEFFELIKKYKKHPVYDCVIGVSGGKDSTFQVVKMLELGLNPLCVCFEPSVPTKIGRKNLDNLNHLGVDLIHIKRDPKVYQKLAREAFIRTGDNEWQNHLGIFTSVPRIAVNFGVPLIIWGESPQIEYGGPASSKNKNILGREWLEEFGGLLGNRASDMLGVNGITEKDLFLYTYPSDEELQRVGVTGLFLGYYFKWDYKKILEISKKYGFLTLDHPVETTYENFENLDCYSNHVHDYLKYCKYGFGRATDNACLDIRLGYISREEGVRLAQKYDGKPPKKAIKKYLEFSGFSEEEFQKIVDSFTNKKIFKRDENGKFIRDYDGSLVRKDECVLK”, the “soluble on expression in E. coli” value was “not soluble”.
In the case of “MKFDIVVIGGGLAGASLLAALKGSGLRLALIESRPPAPLPDDDSWDARVYAISPGSVEFLQSSGIWQRMNAARITPVHEMRVHGDDNAARIDFSAYESGVPELACIIENRQLQHAVWEELAGAENVQIFCPAQCDSLAWQDSHVELTLADGTVLQTALLIGADGINSRVREQAGIGVDRHSYYQTGVVANFETERVHHHIAYQWFRRDGILALLPLPGKRVSMVWSANTALADELLNLSAEALCDRVARAAEYELGSMRLVTAPLGFPLNFVHARSLIKPRLALIGDAAHGIHPLAGQGVNLGLRDVRELARLQRQFGGIGDCGEFSLLRCYERNRKEDILAMGWVTDGLQKLFGSEDAAIMRIRNVGLGITNRLPLLKNRLMRHALSLEHHHHHH”, the “soluble on expression in E. coli” value is reported as “not soluble”.
With “MKFEYEYMETPEDLLMSLSAGFAMAMRNIATVYSYKGYLSYYTPAMSDGEELTMFVTLTKGELAPGLIDFDSENKRIEHVKKATNPEAYHFLVIRPQISTVLDKAIYDFEKSRNQP” the “soluble on expression in E. coli” value was “not soluble”.
For “MKFFLLKKFSEFLNAQTHFSLKRLNASSFLLETFSKEKHAFVVDLSAPYIGLSKKPPESVLKNTLALDFCLNKFTRNAKILQANIIDNDRILEINGAKDLAYKSENFILRLEMIPKKANLMILDKEKCVIEAFRFNDRVAKNDILGALPPNIYEHQEEDLDFKGLLDILEKDFLFYQHKELEHKKNQIIKRLNAQKERLKEKLEKLEDPKNLQLEAKELQTQASLLLTYQHLIHKHESRVVLKDFEDKERAIEIDKSMPLNAFINKKFTLSKKKKQKSQFLYLEEENLKEKIAFKENQINYVKGAQEESVLEMFMPSKNSKIKRPMSGYEVLYYKDFKIGLGKNQKENIKLLQDARANDLWMHVRNIPGSHLIVFCQKNAPKDDVIMELAKMLIKMQKDAFNSYEIDYTQRKFVKIIKGANVIYSKYRTISLKDT”, the “soluble on expression in E. coli” value was “not soluble”.
For “MKFICPLFVVNNMEISRNFYEKVLNQKVQYDFGENVSFESGFAIHLKPHFSELTGINRNDIIQKSNNSELYFEEEDLDSFLKKLKEMNSIEYVHELKEQPWGQRVIRFYDPDMHIIEVGEPMESVVKRLLSEGLSVEETSKRTLMPEEFVRQFLLEHHHHHH”, the “soluble on expression in E. coli” value was “soluble”.
In the case of “MKFLPYIFLLCCGLWSTISFADEDYIEYRGISSNNRVTLDPLRLSNKELRWLASKKNLVIAVHKSQTATLLHTDSQQRVRGINADYLNLLKRALNIKLTLREYADHQKAMDALAEGEVDIVLSHLVTSPPLNNDIAATKPLIITFPALVTTLHDSMRPLTSPKPVNIARVANYPPDEVIHQSFPKATIISFTNLYQALASVSAGHNDYFIGSNIITSSMISRYFTHSLNVVKYYNSPRQYNFFLTRKESVILNEVLNRFVDALTNEVRYEVSQNWLDTGNLAFLNKPLELTEHEKQWIKQHPNLKVLENPYSPPYSMTDENGSVRGVMGDILNIITLQTGLNFSPITVSHNIHAGTQLSPGGWDIIPGAIYSEDRENNVLFAEAFITTPYVFVMQKAPDSEQTLKKGMKVAIPYYYELHSQLKEMYPEVEWIQVDNASAAFHKVKEGELDALVATQLNSRYMIDHYYPNELYHFLIPGVPNASLSFAFPRGEPELKDIINKALNAIPPSEVLRLTEKWIKMPNVTIDTWDLYSEQFYIVTTLSVLLVGSSLLWGFYLLRSVRRRKVIQGDLENQISFRKALSDSLPNPTYVVNWQGNVISHNSAFEHYFTADYYKNAMLPLENSDSPFKDVFSNAHEVTAETKENRTIYTQVFEIDNGIEKRCINHWHTLCNLPASDNAVYICGWQDITETRDLINALEVEKNKAIKATVAKSQFLATMSHEIRTPISSIMGFLELLSGSGLSKEQRVEAISLAYATGQSLLGLIGEILDVDKIESGNYQLQPQWVDIPTLVQNTCHSFGAIAASKSIALSCSSTFPEHYLVKIDPQAFKQVLSNLLSNALKFTTEGAVKITTSLGHIDDNHAVIKMTIMDSGSGLSQEEQQQLFKRYSQTSAGRQQTGSGLGLMICKELIKNMQGDLSLESHPGIGTTFTITIPVEISQQVATVEAKAEQPITLPEKLSILIADDHPTNRLLLKRQLNLLGYDVDEATDGVQALHKVSMQHYDLLITDVNMPNMDGFELTRKLREQNSSLPIWGLTANAQANEREKGLSCGMNLCLFKPLTLDVLKTHLSQLHQVAHIAPQYRHLDIEALKNNTANDLQLMQEILMTFQHETHKDLPAAFQALEAGDNRTFHQCIHRIHGAANILNLQKLINISHQLEITPVSDDSKPEILQLLNSVKEHIAELDQEIAVFCQKND”, the “soluble on expression in E. coli” value is reported as “not soluble”.
With “MKFPFHPWRRLLLCALPFAALLTACDDGKKEPPPKPAEVTTYNSVPWDALPATSDADLLAGFNAWRSACARLAKDPVWGEPCASATTVAADPTAVRAFLQERMQVYSLRSSSNGDQGLITGYYEPVYHGSLSQGEKTPVPVYGVPDDLVVVALESVYPELKGKRLRGRLEGRVLKPYDDAATIRDNGSSAPVLAWLGDPMDLQFLQIQGSGRIQLEDGRQLRIGYGDQNGHPYKPVGRWLVEQGLVPKEEISMKRIRDWAEANPQRVSELLASNPSFVFFSLRPDSDEGPRGSLNVPLTDGYSVAIDRKVIPLGSLMWLSTTRPDDGSAVVRPVAAQDTGGAIVGEVRADLFWGTGDAAGELAGHMKQPGRLWLLWPKGAPLPAS” the “soluble on expression in E. coli” value was “not soluble”.
With “MKFRSTALVKGFRQSAPYVNAHRDKTVVIMLGGEAIADPNFANIVNDIALLNSLGLRIVIVYGTRPQMRSLLKQTEHHAPFHKGIRITDEQTLELVKQIAGQLQLDITARLSMSLNNTPMAGAQINVISGNFVIAQPLGVDDGIDYCHSGRVRRIDTQGINRMLDQQSIVLLGPVASSVTGECFNLLSEDVATQLAIRLNADKLIGFCSEQGVLNEKGQILAELFPSEAEEILQRLEKELTPENGKLTGTMRFLKGAISACKAGVPRSHLISYKEDGALIQELFSFDGIGTQVVMASSEQVRDAEIDDIGGILDLIRPLEEEGILVRRSREQLEQEIAQFTIIEKDGLVIACAALYPFPEEGMAEMGCVAVHPDYRDGDRGVTLLNRLRSKAKQFKLSQLFVLTTRSLHWFREQGFIEVDVSHLPIKKQKLYNFQRKSKILVLKGL” the “soluble on expression in E. coli” value was “not soluble”.
For “MKFSALGDQAIIVTFGEEIKRDIYEKVQRLFQALQQHPFAGMIECVPSFTSLAVYYNVYEVWKGNERSERSHDYVRQYIKELCDSYKEEVKQDVKHISIPVCYGGEYGPDLEEVAHYHGLQVEDVIRIHSETTYFVYMLGFTPGFPYLGGLSKELETPRKETPRLQISPGSVGIGGNQTGIYPLETPGGWNIIGRTPISLFNPEEEIPTYIQSGMYLRFIPITKEEYVSLEGAKKWMLEHHHHHH”, the “soluble on expression in E. coli” value was “soluble”.
In the case of “MKFSSLLQDTAAIDVFIKILTSVSKLSKKRCCVKIEKNALNFICCSGLHDGGSWFSLSIPYSSQIFRKFDMVGMNPRNEEQNLIYFELEIDSLVRVLPGGHCYLKLKLSKSQKDEPMLSVEVRNPEADIVSHQIPITIILSKYWNSYSRPSIGHRKMSISMPPPKMMSRFLHVFKNMNTRVVKLTASTSGDLRISTKIETGEIDVSFSDLQTNPSETDSQEDTAKVQLMIRNISPLFQSFANTRTRAKMNIISNRMAEFNFHNEDCVLSYIVGNVSD”, the “soluble on expression in E. coli” value is reported as “not soluble”.
